Data reported in US20180148485A1 (Pieris, published 2018).
Where two headings read alike, the source gives them in different places.

How the values were obtained:
[1] = biological target: T1, recombinant human GPC3 (R&D Systems #2119-GP-050/CF) (human, UniProt P51654 25-559); assay: ELISA, GPC3 coated, anti-NGAL-HRP detection
T1 construct: also called Glypican-3; biotinylated human GPC3
Source text: GPC3 was coated on a microtiter plate and the tested molecules were titrated. […] The data was fitted with a 1:1 binding model with EC50 value and the maximum signal as free parameters, and a slope that was fixed to unity.

[2] = biological target: T1, recombinant human GPC3 (R&D Systems …); assay: ELISA, GPC3 coated, anti-NGAL-HRP detection; remark: listed apart in the source
Method: The target was dissolved in PBS (1 μg/mL) and coated overnight on microtiter plates at 4° C. The plate was washed after each incubation step with […] PBS supplemented with 0.1% (v/v) Tween 20 (PBS-T) five times. The plates were blocked with 2% BSA (w/v) in PBS-T for 1 h at room temperature and subsequently washed. Different concentrations of the lipocalin mutein (SEQ ID NO: 10) or the fusion polypeptides were added to the wells and incubated for 1 h at room temperature, followed by a wash step. Bound fusion protein or lipocalin mutein was detected after incubation with 1:1000 diluted anti-human NGAL antibody conjugated to HRP in PBS-T supplemented with 2% (w/v) BSA (PBS-TB). After an additional wash step, fluorogenic HRP substrate (QuantaBlu, Thermo) was added to each well and the fluorescence intensity was detected using a fluorescence microplate reader.
The result of the experiment is depicted in FIG. 2, together with the fit curves resulting from a 1:1 binding sigmoidal fit, where the EC50 value and the maximum signal were free parameters, and the slope was fixed to unity.

[3] = biological target: T1, recombinant human GPC3 (R&D Systems …); assay: ELISA, GPC3 coated, anti-NGAL-HRP detection; remark: listed apart in the source
Source text: GPC3 was coated on a microtiter plate and the tested molecules were titrated. Bound molecules were detected via an HRP-labeled anti-human NGAL-specific antibody as described in Example 12. The data was fitted with a 1:1 binding model with EC50 value and the maximum signal as free parameters, and a slope that was fixed to unity.

[4] = biological target: T1, recombinant human GPC3 (R&D Systems …); assay: SPR (Biacore T200), biotinylated GPC3 captured on CAP chip, 1:1 model, apparent affinity
Method: In the SPR affinity assay, biotinylated GPC3 was captured on a sensor chip (“CAP chip”) using the Biotin CAPture Kit (GE Healthcare): sensor Chip CAP is pre-immobilized with an ssDNA oligo. Undiluted Biotin CAPture Reagent (streptavidin conjugated with the complementary ss-DNA oligo) was applied at a flow rate of 2 μL/min for 300 s. For analysis of the lipocalin mutein, biotinylated GPC3 at a concentration of 1 μg/mL was used and 0.25 μg/mL of biotinylated GPC3 for the fusions proteins. The biotinylated GPC3 was applied for 300 s at a flow rate of 5 μL/min. GPC3 was biotinylated by incubation with EZ-Link® NHS-PEG4-Biotin (5-fold molar excess (Thermo Scientific)) during two hours at room temperature. The excess of non-reacted biotin reagent was removed by loading the reaction mixture onto a Zeba™ Spin Desalting Plate (Thermo Scientific). The reference channel was loaded with Biotin CAPture Reagent only.
Applying a flow rate of 30 μL/min, the sample contact time was 180 s and dissociation time was 1200 s. All measurements were performed at 25° C. […] Prior to the protein measurements three regeneration cycles were performed for conditioning purposes. Data were evaluated with Biacore T200 Evaluation software (V 2.0). Double referencing was used and the 1:1 Binding model was used to fit the raw data.

[5] = biological target: T1, recombinant human GPC3 (R&D Systems …); assay: SPR, biotinylated GPC3 captured on CAP chip, 1:1 model, apparent affinity
Method: Biotinlated GPC3 was immobilized on a sensor chip and binding of the fusion polypeptides and lipocalin mutein was analyzed at different concentrations.

[6] = biological target: T2, recombinant human CD137-Fc fusion protein (#838-4B-100, R&D Systems) (human, UniProt Q07011 24-186); assay: SPR, biotinylated CD137-Fc captured on CAP chip, in analogy to Example 6
T2 construct: also called Fc-fusion of human CD137; not shown: Fc part of the bought fusion protein, not described
Method: Biotinlated CD137-Fc was immobilized on sensor chip and binding of the fusion polypeptides and lipocalin mutein was analyzed at different concentrations.

[7] = biological target: T2, recombinant human CD137-Fc fusion …; assay: ELISA, CD137-Fc coated, as described in Example 3
[8] = biological target: T2, recombinant human CD137-Fc fusion …; assay: SPR, CD137-Fc captured by anti-human Fc antibody on CM5 chip, 1:1 model
Method: Binding affinities of the CD137-binding lipocalin mutein and the bispecific polypeptides of SEQ ID NO: 46 and SEQ ID NO: 47 to recombinant human CD137-Fc fusion protein (#838-4B-100, R&D Systems) were determined by Surface Plasmon Resonance using a Biacore T200 instrument (GE Healthcare) in analogy to Example 6. Prior to the SPR affinity assay, a CM5 sensor chip was derivatized with an anti-human Fc antibody using the Human Antibody Capture Kit (GE Healthcare # BR-1008-39) according to the manufacturer's instructions.
Four different concentrations (1000 nM, 200 nM, 40 nM and 8 nM) of the bispecific polypeptides were prepared in running buffer (10 mM HEPES, 150 mM NaCl, 0.05% v/v Surfactant P20, 3 mM EDTA, pH 7.4 (GE Healthcare)) and applied to the chip surface. Applying a flow rate of 30 μL/min, the sample contact time was 180 s and dissociation time was 600 s. All measurements were performed at 25° C. […] Prior to the protein measurements three regeneration cycles were performed for conditioning purposes. Data were evaluated with Biacore T200 Evaluation software (V 2.0). Double referencing was used and the 1:1 Binding model was used to fit the raw data.

[9] = biological target: T2, recombinant human CD137-Fc fusion …; assay: ELISA, CD137-Fc coated, as described in Example 3; remark: listed apart in the source
Source text: The data was fitted with a 1:1 binding model with EC50 value and the maximum signal as free parameters, and a slope that was fixed to unity.

T1 sequence (P51654 25-559 limits assumed): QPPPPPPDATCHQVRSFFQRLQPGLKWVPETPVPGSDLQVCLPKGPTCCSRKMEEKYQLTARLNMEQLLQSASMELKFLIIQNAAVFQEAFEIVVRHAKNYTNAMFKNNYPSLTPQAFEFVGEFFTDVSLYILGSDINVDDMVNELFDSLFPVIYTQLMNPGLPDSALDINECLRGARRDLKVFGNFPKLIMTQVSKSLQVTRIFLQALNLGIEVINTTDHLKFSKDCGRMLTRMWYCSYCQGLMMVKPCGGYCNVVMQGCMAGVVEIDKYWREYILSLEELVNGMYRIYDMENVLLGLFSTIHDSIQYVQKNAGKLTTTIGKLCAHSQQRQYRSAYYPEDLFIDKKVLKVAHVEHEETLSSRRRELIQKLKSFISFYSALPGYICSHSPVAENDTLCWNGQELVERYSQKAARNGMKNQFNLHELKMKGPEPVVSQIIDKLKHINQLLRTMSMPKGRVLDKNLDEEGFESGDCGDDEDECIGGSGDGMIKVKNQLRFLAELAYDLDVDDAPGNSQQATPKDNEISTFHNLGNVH

B1: GPC3-binding lipocalin mutein of SEQ ID NO: 10 (designed binder)
chain: QDSTSDLIPAPPLSKVPLQQNFQDNQFQGKWYVVGRAGNVGLREDKDPPKMWATIYELKEDKSYDVTNVRFARKKCTYSIGTFVPGSQPGEFTLGQIKSEPGGTANLVRVVSTNYNQHAMVFFKEVYQNREIFFIILYGRTKELTSELKENFIRFSKSLGLPENHIVFPVPIDQCIDG
notes: hNGAL-based lipocalin mutein; also called GPC3 lipocalin mutein
- EC50 [1]: 0.32 nM
- EC50 [2]: 0.55 nM
- EC50 [3]: 0.55 nM
- Kd [4]: 0.012 nM
- Kd [5]: 0.033 nM

B2: CD137-binding lipocalin mutein of SEQ ID NO: 26 (designed binder)
chain: QDSTSDLIPAPPLSKVPLQQNFQDNQFHGKWYVVGQAGNIRLREDKDPIKMMATIYELKEDKSYDVTMVKFDDKKCMYDIWTFVPGSQPGEFTLGKIKSFPGHTSSLVRVVSTNYNQHAMVFFKFVFQNREEFYITLYGRTKELTSELKENFIRFSKSLGLPENHIVFPVPIDQCIDG
- Kd [6]: 2.3 nM
- EC50 [7]: 0.28 nM
- Kd [8]: 2.3 pM
- EC50 [9]: 0.43 nM
